Experimental data: patent US20060217308A1, “Compositions for the treatment of tumor pathologies, comprising internalin B (ln1B) of Listeria monocytogene protein or a fragment thereof” (priority 2005, published 2006)

What was measured:
Assay type in all cases: cell-based, human
[1] = tested on: Met; experiment: Nature of In1B-dependent ubiquitination of Met (FK1 versus P4D1 antibodies); conditions: HeLa cells, In1B 5 nM, FK1 did not recognize
Method: (A) In1B was added (+) to HeLa cells. Lysates were immunoprecipitated using C12 rabbit polyclonal anti-Met antibody and blotted against Met (DL21 mAb). The same membrane was stripped and blotted against ubiquitin using FK1, a mAb that recognizes poly-ubiquitinated proteins, or P4D1, a mAb that recognizes both poly- and mono-ubiquitinated proteins. (B) Total cell extracts from Hela cells treated with […] epoximycin (lane 2) or […] clasto-lactacystin-β-lactone (lane 3) for 60 minutes, or non-treated cells (lane 1) were blotted against poly-ubiquitin (FK1) or actin. (C) ubiquitin ladder was blotted with FK1 or P4D1. The number of ubiquitin modules is indicated on the right. The molecular weight of protein markers is shown in the left of the panels, in kDa. In D and E, Hela Cells were transfected with siRNA to knock down Cbl expression (RNAi), or with RNA control (Control). (D) Cellular Cbl and actin were detected by immunoblotting. […]
The rapid degradation of Met after In B contact is different from the HGF-dependent degradation, which has been reported to take two hours (19-21), indicating differences in the biochemistry of the process. […] Samples from HeLa cells treated with In1B (5 nM) were immunoprecipitated using an anti-Met antibody, and then Met-immunoprecipitates were analyzed with an anti Met mAb (FIG. 3A1), FK1 (FIG. 3A2) or P4D1 (FIG. 3A3). […]

[2] = tested on: Met; experiment: Cell surface biotinylation and internalization assay of Met; conditions: HeLa cells, In1B two minutes
Method: (A) Hela cells were treated (+) with […] epoximycin, […] clasto-lactacystin-β-lactone (lactone), 20 mM ammonium chloride, or 5 μM bafilomycin A1 (Baf-A1) for 90 minutes before addition of In1B. Cell extracts were loaded in a SDS-PAGE gel followed by immunoblot with anti-Met antibody. […] (B) Surface exposed proteins of Hela cells were biotinylated (Biot +) before addition of In1B. In1B was added for two minutes to allow internalization of Met, then cells were washed and biotin was removed (see methods and text) from the surface. Samples were precipitated with neutravidin agarose and blotted against Met.
Cell surface biotinylation and internalization assay were performed as described before (35). Briefly, the cells were washed in ice-cold PBS, and incubated with 25 mg/ml EZ-link Sulfo-NHS-SS-biotin (Pierce) 15 minutes in PBS pH 8.0, and followed by one wash with serum free media containing 0.1% BSA, followed by one wash in PBS containing Ca and Mg (PBS+CaMg; Gibco). The cells were then warmed to 37° C., incubated with In1B for two minutes, and then cooled down to 4° C. The cells were washed again with PBS+CaMg, and cell-surface debiotinylation was performed by adding 100 mM MESNA in 50 mM Tris-HCl pH 8.6, 100 mM NaCl, 1 mM EDTA and 0.2% BSA (3 times, 10 minutes incubation). […]

[3] = tested on: Met; experiment: Maintenance of InIB-induced degradation of Met in the presence of HGF; conditions: HeLa cells, HGF 1 nM + InIB 5 nM, 1% serum medium
Method: FIG. 9 depicts immunodetection of Met from total cell lysates. Serum-containing media (1%) with HGF (1 nM), HGF (1 nM)+InIB (5 nM), or without either HGF or InIB (control) was added to HeLa cells. Cells were recovered at the indicated times after addition of HGF, and HGF+InIB, resuspended in SDS-PAGE sample buffer, and immediately boiled for 5 minutes.
Shortly after InIB treatment, Met is very rapidly degraded. Thus, whether InIB-induced degradation of Met is maintained for longer periods of time was tested. In fact, InIB-induced degradation of Met is maintained in time.

[4] = tested on: Met; experiment: In1B-induced degradation of Met, anti-Met immunoblot of total HeLa cell extracts
Method: FIG. 2 depicts the degradation and de-novo synthesis of Met. (A) HeLa cells were treated at the indicated times with 5 nM In1B and cellular extracts were blotted against Met. (B) Cells were treated as in A, but blotted at the same time with anti-Met antibody and Streptavidin. Stars indicate nonspecific bands recognized by streptavidin and the square indicates Met. (C) The experiment was performed as in A, but cells were pre-treated with […] of cycloheximide for 90 minutes before addition of In1B. (D) This experiment was performed as in A, but In1B was removed three minutes after it was added. Actin is shown as the loading control in A, C and D. The molecular mass of the markers is indicated in kDa.
Cells, bacteria and growth conditions. The human cell line used was HeLa (ATCC number CCL-2) grown as recommended by ATCC. Typically, cells were serum starved for three hours before the addition of In1B. The bacterial strains used were Listeria monocytogenes BUG600 and BUG1461. They were grown in BHI medium, which in the case […] contained 5 μg/ml of erythromycin.
Assays. Immunoprecipitation, Re-immunoprecipitation, and immunoblots were performed as described before (31). In1B purification was performed as described (54).
To study In1B-induced degradation of Met in more detail, HeLa cells were treated during increasing periods with In1B (5 nM) and anti-Met immunoblots were performed directly on total cell extracts (FIG. 2A).
When In1B is present, de-novo synthesized Met was in turn ubiquitinated and then degraded (FIG. 2A).

Chain of Met (P08581 25-1390): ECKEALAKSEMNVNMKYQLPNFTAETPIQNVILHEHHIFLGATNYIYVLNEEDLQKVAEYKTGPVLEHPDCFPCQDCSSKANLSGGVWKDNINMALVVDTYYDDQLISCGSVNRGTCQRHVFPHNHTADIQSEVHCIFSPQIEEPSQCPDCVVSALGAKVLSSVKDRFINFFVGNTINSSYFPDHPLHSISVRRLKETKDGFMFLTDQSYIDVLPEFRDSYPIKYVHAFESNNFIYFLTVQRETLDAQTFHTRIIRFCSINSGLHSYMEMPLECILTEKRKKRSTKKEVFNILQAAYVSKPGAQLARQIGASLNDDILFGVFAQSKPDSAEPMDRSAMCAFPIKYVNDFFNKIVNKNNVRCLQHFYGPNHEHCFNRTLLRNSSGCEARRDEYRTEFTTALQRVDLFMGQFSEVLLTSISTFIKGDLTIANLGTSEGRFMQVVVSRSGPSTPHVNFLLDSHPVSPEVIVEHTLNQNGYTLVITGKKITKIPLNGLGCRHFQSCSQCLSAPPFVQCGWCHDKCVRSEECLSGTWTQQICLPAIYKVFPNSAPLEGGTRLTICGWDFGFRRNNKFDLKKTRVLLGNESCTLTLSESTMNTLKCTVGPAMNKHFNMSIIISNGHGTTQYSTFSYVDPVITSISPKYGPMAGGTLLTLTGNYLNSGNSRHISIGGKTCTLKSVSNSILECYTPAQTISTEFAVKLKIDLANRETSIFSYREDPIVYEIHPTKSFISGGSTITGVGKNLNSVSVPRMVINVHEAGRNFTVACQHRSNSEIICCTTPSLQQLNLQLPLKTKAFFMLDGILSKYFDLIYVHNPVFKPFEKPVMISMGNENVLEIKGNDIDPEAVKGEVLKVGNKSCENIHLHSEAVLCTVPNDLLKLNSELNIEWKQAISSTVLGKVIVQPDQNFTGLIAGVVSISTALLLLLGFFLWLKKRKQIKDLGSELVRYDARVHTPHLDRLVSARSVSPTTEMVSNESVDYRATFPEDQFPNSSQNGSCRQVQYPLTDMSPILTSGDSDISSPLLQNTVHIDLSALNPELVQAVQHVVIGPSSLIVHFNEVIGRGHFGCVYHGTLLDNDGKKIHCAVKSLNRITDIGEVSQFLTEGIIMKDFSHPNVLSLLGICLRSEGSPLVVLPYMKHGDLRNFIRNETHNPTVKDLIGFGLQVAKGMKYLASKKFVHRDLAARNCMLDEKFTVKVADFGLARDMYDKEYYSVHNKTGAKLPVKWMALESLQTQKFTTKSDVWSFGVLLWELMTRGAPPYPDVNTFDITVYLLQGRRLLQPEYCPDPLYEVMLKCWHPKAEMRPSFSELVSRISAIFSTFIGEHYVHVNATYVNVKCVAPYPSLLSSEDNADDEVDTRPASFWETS

B1: In1B: Listeria monocytogenes surface protein of the internalin family that interacts with Met; purified soluble protein (protein, UniProt P0DQD2 31-630, looked up)
Internalin B: AKVQAETITVPTPIKQIFSDDAFAETIKDNLKKKSVTDAVTQNELNSIDQIIANNSDIKSVQGIQYLPNVTKLFLNGNKLTDIKPLANLKNLGWLFLDENKVKDLSSLKDLKKLKSLSLEHNGISDINGLVHLPQLESLYLGNNKITDITVLSRLTKLDTLSLEDNQISDIVPLAGLTKLQNLYLSKNHISDLRALAGLKNLDVLELFSQECLNKPINHQSNLVVPNTVKNTDGSLVTPEIISDDGDYEKPNVKWHLPEFTNEVSFIFYQPVTIGKAKARFHGRVTQPLKEVYTVSYDVDGTVIKTKVEAGTRITAPKPPTKQGYVFKGWYTEKNGGHEWNFNTDYMSGNDFTLYAVFKAETTEKAVNLTRYVKYIRGNAGIYKLPREDNSLKQGTLASHRCKALTVDREARNGGKLWYRLKNIGWTKAENLSLDRYDKMEYDKGVTAYARVRNASGNSVWTKPYNTAGAKHVNKLSVYQGKNMRILREAKTPITTWYQFSIGGKVIGWVDTRALNTFYKQSMEKPTRLTRYVSANKAGESYYKVPVADNPVKRGTLAKYKNQKLIVDCQATIEGQLWYRIRTSSTFIGWTKAANLRAQK
[1]
  nature of In1B-dependent ubiquitination of Met: mono-ubiquitination rather than poly-ubiquitination
[2]
  endocytosis of Met (protection of biotinylated Met from MESNA de-biotinylation): protected Met from de-biotinylation
[3]
  time for which InIB-induced degradation of Met is maintained: at least 24 hours
[4]
  time after addition at which In1B-induced degradation of Met is observable: one
[4]; HeLa cells, In1B 5 nM, 2 minutes
  total amount of Met two minutes after addition of In1B: strongly reduced
[4]; HeLa cells, In1B 5 nM, blot with anti-Met antibody and Streptavidin, actin control
  specificity of the In1B effect for Met versus other cellular proteins: only affected the amount of Met
[4]; HeLa cells, In1B removed three minutes after addition, 15 minutes after initial exposure
  degradation of re-synthesized Met when In1B was removed from the medium: no degradation of Met was observed
